Source: patent US20100021987

Legend:
[1] = system: 6xHis-AtSUMO1-eGFP
[2] = system: 6xHis-AtSUMO2-eGFP
[3] = system: 6xHis-T-SUMO-eGFP
[4] = system: 6xHis-hSUMO-1-eGFP
[5] = system: 6xHis-hSUMO-3-eGFP
[6] = system: 6xHis-ySmt3-eGFP

Measured: activity level (grade)

GST fusion of the catalytic domain of the Xanthomonas campestris pathovar vesicatoria protease XopD (GST-XopD)
+/-: [2] | [3] | [6]
-: all other assays above
